From patent publication CN111499746A (YUROGEN BIOSYSTEMS LLC, dated 2020) come the findings set out here.

The assay has as its target T1, 重组人IL-2蛋白 (human, UniProt P60568 21-153).
T1 construct: also called 人白介素-2; 重组表达人IL-2
The assay can be described thus: SPR, Biacore 3000; antibody at 333 nM, recombinant human IL-2 at 64, 32, 16, 8, 4 nM. For orientation: SPR reads the build-up and loss of mass on a sensor chip optically.

T1 sequence (P60568 21-153 limits assumed): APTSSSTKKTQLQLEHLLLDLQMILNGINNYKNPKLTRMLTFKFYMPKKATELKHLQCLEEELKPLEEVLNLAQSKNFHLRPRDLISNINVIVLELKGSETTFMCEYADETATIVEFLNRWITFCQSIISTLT

B1: 抗人IL-2蛋白兔单克隆抗体B (antibody, V domains shown)
VH: QSLEESGGRLVTPGGSLTLTCTVSGIDLSTGGVSWVRQAPGKGLEWIGIISRHTNTYYASWAKGRFTISKTSSTTVDVKITSPTIEDTATYYCARVSSGDGLYAFDPWGPGTLVTVSS
VL: AIEMTQTPSPVSAAVGGTVTINCQASEDIETYLAWYQQKPGQPPRLLIYSGSTIASGVSSHFKGSGSGTEFTLTISDLECADAATYYCQCTSYASGYWNQAFGGGTEVVVRG
notes: Recombinant rabbit monoclonal antibody made in 293 cells and purified on protein A; in the Biacore assay it is unlabelled; also called 人IL-2兔单克隆抗体B
By Kd is commonly meant the free concentration of one partner at which half of the binding sites on the other are occupied at equilibrium, for simple one-to-one binding. B1: the dissociation constant (Kd) amounted to 0.293 nM.

B2: 抗人IL-2蛋白兔单克隆抗体A (antibody, V domains shown)
VH: QSVAESGGRLVTPGTPLTLTCTASGFSLTTYAMSWVRQAPGKGLEWIAIIYIDGTTYYGSWAKGRFTISKTSTTVDLRIISPTTEDTATYFCAKWYVGEMDLWGPGTLVTVSS
VL: DIVMTQTPASVEAAVGGTVTINCQASQSVYRDNYLAWYQQKPGQRPKLLIYGTSTLASGVSSRFKGSGSGTQFTLTISDLECADAATYYCQSYVYSSTIDNAFGGGTEVVVKG
notes: Recombinant rabbit monoclonal antibody made in 293 cells and purified on protein A; also called 人IL-2兔单克隆抗体A
As to B2, the Kd came out at 0.899 nM.
